Measurements reported in US20180258181A1 (Bayer, published 2018).
Positions count from the first letter of the chain named.

Experiments:
[1] = biological target: T1, human mesothelin (recombinant, soluble, purified; 40 kDa C-terminal polypeptide of the mesothelin precursor) (human, UniProt Q13421 296-598, limits assumed); experiment: SPR (Biacore), Fab on directly immobilized mesothelin
T1 construct: also called soluble mesothelin

[2] = biological target: T1, human mesothelin (recombinant, soluble, …); experiment: SPR (Biacore 3000), Fab on covalently immobilized human mesothelin
[3] = biological target: T2, murine mesothelin (recombinant) (murine, UniProt Q61468 298-600, limits assumed); experiment: SPR (Biacore 3000), Fab on covalently immobilized murine mesothelin
T2 construct: Covalently immobilized on the Biacore chip
T2 sequence (looked up): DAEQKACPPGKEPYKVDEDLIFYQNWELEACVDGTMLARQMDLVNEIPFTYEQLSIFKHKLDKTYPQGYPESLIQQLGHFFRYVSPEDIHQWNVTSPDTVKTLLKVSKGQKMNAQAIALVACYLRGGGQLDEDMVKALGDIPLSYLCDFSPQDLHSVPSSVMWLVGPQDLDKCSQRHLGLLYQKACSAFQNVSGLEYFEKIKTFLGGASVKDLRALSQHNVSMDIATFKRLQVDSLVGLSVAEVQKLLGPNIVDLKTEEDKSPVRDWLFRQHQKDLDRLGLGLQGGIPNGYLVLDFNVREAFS
Procedure: Shown in Table 5 are results of Biacore and ELISA studies showing cross-reactivity of antibodies of the invention to murine mesothelin. The kinetic constants kₒₙ and koff were determined with serial dilutions of the respective purified Fab fragment binding to covalently immobilized human or murine mesothelin using the Biacore 3000 instrument (Biacore, Uppsala, Sweden). Covalent antigen immobilization was achieved by a standard EDC-NHS coupling procedure. Kinetic measurements were done in PBS, pH 7.2 at a flow rate of […] using Fab concentration ranging from 1.5-500 nM. Injection time for each concentration was 1 min, followed by 3 min dissociation phase. For regeneration 5 μl 10 mM glycine buffer, pH 1.8 was used. All sensograms were fitted using the BIA evaluation software 3.1 (Biacore).

[4] = biological target: T3, mesothelin on NCI-H226 cells (UniProt Q13421 296-598); experiment: FACS titration, IgG on NCI-H226 cells
T3 construct: whole, on cells; In the immunoblots the protein stood in a denatured cell extract
Procedure: FACS titration was performed in a 96 well microtiter plate, in which serial dilutions of the primary antibody in a volume of 80 μl of FACS buffer (3% FCS, 0.02% NaN₃ in PBS) were mixed with 20 μl of a cell suspension consisting of 10⁶ cells/ml which had been detached with accutase or trypsin/EDTA, and resuspended in FACS buffer. Incubation was performed at 4° C. for 1 hour with agitation. Cells were washed twice with FACS buffer and resuspended in 100 μl/well of anti-human PE conjugate solution in FACS buffer. Incubation and washing was performed as before. Analysis of cell-bound antibodies was done using the FACS Array device. EC₅₀ values were determined from fluorescence medians of duplicates using Prism 4.0 software (GraphPad) applying non-linear regression fit.

[5] = biological target: T4, mesothelin on CHO-A9 cells (CHO-K1 stably transfected with the GPI-anchored C-terminal part of mesothelin) (Homo sapiens (Human), UniProt Q13421 287-598, GPI anchor); experiment: live cell ELISA, IgG1 on CHO-A9 cells
T4 construct: In the immunoblots the protein stood in a denatured cell extract; also called mesothelin-expressing CHO-A9 cells

[6] = biological target: T4, mesothelin on CHO-A9 cells (CHO-K1 …); experiment: FACS with Scatchard analysis, IgG1 on CHO-A9 cells

T3 sequence (Q13421 other isoform, or with tags, fused parts or gaps limits assumed): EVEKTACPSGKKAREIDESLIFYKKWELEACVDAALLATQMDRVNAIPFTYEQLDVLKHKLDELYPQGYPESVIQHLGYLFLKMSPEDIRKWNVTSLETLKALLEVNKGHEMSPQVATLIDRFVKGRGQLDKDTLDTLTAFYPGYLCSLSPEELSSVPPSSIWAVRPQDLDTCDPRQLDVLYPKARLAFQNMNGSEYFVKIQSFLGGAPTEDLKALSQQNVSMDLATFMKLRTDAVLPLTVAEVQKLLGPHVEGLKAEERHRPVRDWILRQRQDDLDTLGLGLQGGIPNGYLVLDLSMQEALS
T4 sequence (Q13421 other isoform, or with tags, fused parts or gaps limits assumed): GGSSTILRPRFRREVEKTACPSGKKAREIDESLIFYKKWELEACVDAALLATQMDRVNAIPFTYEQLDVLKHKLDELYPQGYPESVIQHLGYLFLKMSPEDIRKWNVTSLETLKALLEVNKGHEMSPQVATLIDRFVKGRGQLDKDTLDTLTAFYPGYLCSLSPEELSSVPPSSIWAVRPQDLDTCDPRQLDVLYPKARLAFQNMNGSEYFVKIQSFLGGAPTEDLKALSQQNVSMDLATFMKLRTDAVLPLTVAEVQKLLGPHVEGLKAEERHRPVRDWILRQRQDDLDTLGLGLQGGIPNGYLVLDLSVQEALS

B1: MF-226 Fab (Fab, V domains shown)
VH: QVELVQSGAEVKKPGASVKVSCKASGYTFTGNYINWVRQAPGQGLEWMGIINPHGGDTKYAQKFQGRVTMTRDTSISTAYMELSSLRSEDTAVYYCARWHHGTWIFDYWGQGTLVTVSS
VL: DIVLTQPPSVSGAPGQRVTISCSGSSSNIGSNYVSWYQQLPGTAPKLLIYNDNQRPSGVPDRFSGSKSGTSASLAITGLQSEDEADYYCSTYDRRTFSVFGGGTKLTVLG
notes: Purified Fab
B1 gave a Kd [1] of 58 nM, a koff [1] of 0.038 s⁻¹ and a Kd [2] of 58 nM. The koff [2] was 0.038 s⁻¹, the Kd [3] was 1280 nM and the koff [3] was 0.14 s⁻¹.

B2: MOR06638 Fab (Fab, V domains shown)
VH: B1 VH with E3Q
VL: DIVLTQPPSVSGAPGQRVTISCSGSSSNIGSNYVSWYQQLPGTAPKLLIYNDNQRPSGVPDRFSGSKSGTSASLAITGLQSEDEADYYCSSWDRADGSYVFGGGTKLTVLG
notes: Purified Fab
With B2 the Kd [1] was 16 nM, the koff [1] was 0.0063 s⁻¹ and the Kd [2] was 16 nM. The koff [2] was 0.0063 s⁻¹, the Kd [3] was 320 nM and the koff [3] was 0.04 s⁻¹.

B3: MOR06638 IgG (antibody, V domains shown)
VH: B1 VH with E3Q
VL: B2 VL
B3 gave an EC50 [4] of 0.19 nM.

B4: MOR06626 IgG (antibody, V domains shown)
VH: B1 VH with E3Q, H54T, G55K, D57W, K59L
VL: B1 VL
B4 gave an EC50 [4] of 0.44 nM.

B5: MOR06626 Fab (Fab, V domains shown)
VH: B1 VH with E3Q, H54T, G55K, D57W, K59L
VL: B1 VL
notes: Purified Fab
B5 gave a Kd [1] of 0.67 nM, a koff [1] of 0.0012 s⁻¹ and a Kd [2] of 0.67 nM. The koff [2] was 0.0012 s⁻¹, the Kd [3] was 6.7 nM and the koff [3] was 0.0098 s⁻¹.

B6: MOR06643 Fab (Fab, V domains shown)
VH: QVQLVESGGGLVQPGGSLRLSCAASGFTFSDYAMSWVRQAPGKGLEWVSAIMYDSSSTFYADSVKGRFTISRDNSKNTLYLQMNSLRAEDTAVYYCARINYIYKGVHFDYWGQGTLVTVSS
VL: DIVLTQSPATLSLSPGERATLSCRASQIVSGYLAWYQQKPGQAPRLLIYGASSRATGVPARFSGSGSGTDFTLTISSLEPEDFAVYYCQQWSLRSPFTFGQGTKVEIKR
notes: Purified Fab
In the case of B6, the Kd [1] is reported as 0.36 nM and the koff [1] is reported as 0.00028 s⁻¹.

B7: MOR06643 IgG (antibody, V domains shown)
VH: B6 VH
VL: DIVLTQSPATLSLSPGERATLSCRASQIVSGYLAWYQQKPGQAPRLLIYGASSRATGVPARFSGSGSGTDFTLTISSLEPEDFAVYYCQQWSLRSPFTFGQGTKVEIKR
Binder B7 has an EC50 [4] of 0.23 nM.

B8: MF-J Fab (Fab, V domains shown)
VH: QVELVQSGAEVKKPGESLKISCKGSGYSFTNYWIGWVRQMPGKGLEWMGVIMPSDSYTRYSPSFQGQVTISADKSISTAYLQWSSLKASDTAMYYCARYGHGMYGGALDVWGQGTLVTVSS
VL: DIVLTQSPATLSLSPGERATLSCRASQSVRSSRLAWYQQKPGQAPRLLIYGASKRATGVPARFSGSGSGTDFTLTISSLEPEDFATYYCQQYYDFPPTFGQGTKVEIKR
notes: Purified Fab
B8 was tested, and the Kd [1] was 9.2 nM and the koff [1] was 0.0029 s⁻¹.

B9: MOR06640 IgG (antibody, V domains shown)
VH: B8 VH with E3Q
VL: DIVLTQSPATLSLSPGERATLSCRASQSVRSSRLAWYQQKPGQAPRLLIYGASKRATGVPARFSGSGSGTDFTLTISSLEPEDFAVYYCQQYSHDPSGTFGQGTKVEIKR
For B9, the EC50 [4] was 0.63 nM.

B10: MOR06631 Fab (Fab, V domains shown)
VH: B8 VH with E3Q, V50F, M52W, S54V, Y57W, R59Q
VL: B8 VL
notes: Purified Fab
B10 was tested, and the Kd [1] was 0.09 nM and the koff [1] was 1.4e-05 s⁻¹.

B11: MF-J IgG (antibody, V domains shown)
VH: B8 VH
VL: B8 VL
For B11, the EC50 [5] was 3.9 nM and the EC50 [6] was 0.11 nM.

B12: MOR07265 IgG (antibody, V domains shown)
VH: B8 VH with E3Q, V50F, M52W, S54V, Y57W, R59Q
VL: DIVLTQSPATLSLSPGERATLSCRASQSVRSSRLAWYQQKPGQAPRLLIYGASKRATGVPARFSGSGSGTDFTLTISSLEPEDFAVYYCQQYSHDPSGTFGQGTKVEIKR
With B12 the EC50 [4] was 1.11 nM.

B13: MOR06631 IgG (antibody, V domains shown)
VH: B8 VH with E3Q, V50F, M52W, S54V, Y57W, R59Q
VL: B8 VL
With B13 the EC50 [4] was 2.02 nM.

B14: MOR06642 IgG (antibody, V domains shown)
VH: B8 VH with E3Q
VL: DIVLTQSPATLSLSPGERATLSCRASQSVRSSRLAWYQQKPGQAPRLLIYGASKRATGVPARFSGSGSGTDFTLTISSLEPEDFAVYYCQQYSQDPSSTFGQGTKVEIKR
B14 showed an EC50 [4] of 0.58 nM.

B15: MOR06669 IgG (antibody, V domains shown)
VH: B8 VH with E3Q, V50I, M52W, S54I, Y57F, R59Q
VL: B8 VL
B15 showed an EC50 [4] of 0.41 nM.

B16: MOR06669 Fab (Fab, V domains shown)
VH: B8 VH with E3Q, V50I, M52W, S54I, Y57F, R59Q
VL: B8 VL
notes: Purified Fab
With B16 the Kd [1] was 0.24 nM and the koff [1] was 8.1e-05 s⁻¹.

B17: MOR07111 IgG (antibody, V domains shown)
VH: B8 VH with E3Q
VL: B8 VL with T86V, Y92F, D94S, F95K, P97I
B17 was tested, and the EC50 [4] was 0.8 nM.

B18: MF-A Fab (Fab, V domains shown)
VH: QVQLVQSGAEVKKPGSSVKVSCKASGGTFSSYYFSWVRQAPGQGLEWMGGIIPKFGSANYAQKFQGRVTITADESTSTAYMELSSLRSEDTAVYYCARRTSMDYWGQGTLVTVSS
VL: DIALTQPASVSGSPGQSITISCTGTSSDVGGYNYVSWYQQHPGKAPKLMIYSVSKRPSGVSNRFSGSKSGNTASLTISGLQAEDEADYYCGAWAHMSLGKVFGGGTKLTVLG
notes: Purified Fab
Work on B18 yielded a Kd [1] of 19 nM, a koff [1] of 0.079 s⁻¹ and a Kd [2] of 19 nM. For the same binder, the koff [2] was 0.079 s⁻¹, the Kd [3] was 670 nM and the koff [3] was 0.27 s⁻¹.

B19: MF-A IgG (antibody, V domains shown)
VH: B18 VH
VL: B18 VL
Binder B19 has an EC50 [5] of 0.8 nM and an EC50 [6] of 0.05 nM.

B20: MOR06657 IgG (antibody, V domains shown)
VH: B18 VH
VL: B18 VL with G91A, A92T, A94D, M96S, S97Q, L98M
For B20, the EC50 [4] was 0.14 nM.

B21: MOR06657 Fab (Fab, V domains shown)
VH: B18 VH
VL: B18 VL with G91A, A92T, A94D, M96S, S97Q, L98M
notes: Purified Fab
B21 was tested, and the Kd [1] was 0.95 nM, the koff [1] was 0.0055 s⁻¹ and the Kd [2] was 0.95 nM. The koff [2] was 0.0055 s⁻¹, the Kd [3] was 360 nM and the koff [3] was 0.16 s⁻¹.
